# Literature values, collected in PMC4246237.
# Like-named read-outs stand apart in the source and are kept apart here.
# Legend:
# AVP (Human adenovirus 2) [1] = molecular target: AVP (Human adenovirus 2) (UniProt P03252)
# AVP (Human adenovirus 2) [2] = molecular target: AVP (Human adenovirus 2) (UniProt P03252); remark: listed apart in the source
# UniProt P03252, sequence (P03252 whole entry): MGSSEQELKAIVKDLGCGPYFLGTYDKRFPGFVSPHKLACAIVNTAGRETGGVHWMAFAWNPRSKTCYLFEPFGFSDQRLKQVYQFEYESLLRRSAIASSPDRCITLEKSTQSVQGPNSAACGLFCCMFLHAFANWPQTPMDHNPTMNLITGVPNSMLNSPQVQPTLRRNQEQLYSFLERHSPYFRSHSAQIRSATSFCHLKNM
substance,measurement,setting,value
pVIc pVIc (from UniProt P03274),Kd,AVP (Human adenovirus 2) [1],4.4 µM
same,Kd,AVP (Human adenovirus 2) [2],0.09 µM
